Key:
[1] = target: T1, human MCAM domain 1 (amino acids 19-129), Fc-tagged (human, UniProt P43121 19-129); experiment: ForteBio domain mapping as in Example 8
T1 construct: also called MCAM Fc domain 1
T1 sequence: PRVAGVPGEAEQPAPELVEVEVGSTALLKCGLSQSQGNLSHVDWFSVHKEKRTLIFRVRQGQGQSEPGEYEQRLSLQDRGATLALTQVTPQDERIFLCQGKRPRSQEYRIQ

[2] = target: T2, human MCAM (melanoma cell adhesion molecule) expressed on transfected CHO cells (human, UniProt P43121 24-646); experiment: laminin/FACS on hMCAM CHO cells, competitor laminin 411; Expt#1; vs rodent 1749
T2 construct: also called hMCAM; CD146
T2 chain: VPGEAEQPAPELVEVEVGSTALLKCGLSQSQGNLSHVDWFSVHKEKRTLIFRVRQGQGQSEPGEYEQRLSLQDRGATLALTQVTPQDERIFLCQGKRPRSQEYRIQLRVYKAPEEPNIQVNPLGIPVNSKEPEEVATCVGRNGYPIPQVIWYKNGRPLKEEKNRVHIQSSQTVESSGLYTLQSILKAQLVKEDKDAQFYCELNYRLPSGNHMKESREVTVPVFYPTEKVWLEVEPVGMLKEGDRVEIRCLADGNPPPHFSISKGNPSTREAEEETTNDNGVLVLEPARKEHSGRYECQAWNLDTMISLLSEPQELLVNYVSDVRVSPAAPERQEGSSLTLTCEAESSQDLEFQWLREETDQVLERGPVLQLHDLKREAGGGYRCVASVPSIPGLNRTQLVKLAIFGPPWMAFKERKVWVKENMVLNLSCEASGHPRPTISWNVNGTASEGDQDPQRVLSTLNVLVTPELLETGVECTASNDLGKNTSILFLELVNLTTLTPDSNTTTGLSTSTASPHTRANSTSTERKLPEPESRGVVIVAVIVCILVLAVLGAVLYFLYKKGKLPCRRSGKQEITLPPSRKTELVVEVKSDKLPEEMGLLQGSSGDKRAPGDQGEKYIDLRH
Outline: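 Detection of cell-bound laminin used anti-laminin conjugated to AF650 after a wash step, the preceding incubation lasting 30-45 minutes. Signal was read on a flow cytometer.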

[3] = target: T3, recombinant hMCAM-His (human, UniProt P43121 24-559); experiment: ForteBio Octet Red, hMCAM-His analyte; Forte column 1; vs rodent 1749
T3 construct: not shown: His tag
T3 chain: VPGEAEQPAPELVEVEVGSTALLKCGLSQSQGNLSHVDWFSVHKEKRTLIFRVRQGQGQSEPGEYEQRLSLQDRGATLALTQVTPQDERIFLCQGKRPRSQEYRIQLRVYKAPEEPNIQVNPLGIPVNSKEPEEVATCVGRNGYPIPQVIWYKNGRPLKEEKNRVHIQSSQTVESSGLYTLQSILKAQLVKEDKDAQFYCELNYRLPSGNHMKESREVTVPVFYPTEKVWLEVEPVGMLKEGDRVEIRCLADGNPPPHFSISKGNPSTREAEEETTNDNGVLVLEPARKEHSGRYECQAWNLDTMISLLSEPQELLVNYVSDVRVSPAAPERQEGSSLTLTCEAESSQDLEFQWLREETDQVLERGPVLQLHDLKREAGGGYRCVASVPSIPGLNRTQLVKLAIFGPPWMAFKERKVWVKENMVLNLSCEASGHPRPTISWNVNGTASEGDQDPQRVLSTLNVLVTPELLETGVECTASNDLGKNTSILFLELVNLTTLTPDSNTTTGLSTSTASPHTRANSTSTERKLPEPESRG
Outline: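 Octet Red biolayer interferometry measured binding of hMCAMHis analyte at a range of concentrations to humanized antibodies bound to anti-human Fc sensors.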

[4] = target: T2, human MCAM (melanoma cell adhesion …); experiment: flow cytometry, human MCAM CHO cells preincubated with antibody, competitor recombinant human laminin 411 at 20 ug/ml
Protocol: The 87 independent mouse fusion clones and 26 independent rat fusion clones described in Example 10 above as being capable of (i) binding to human MCAM, and (ii) blocking the interaction between human MCAM and the α-4 chain of laminin were further characterized as follows. First, IC50 quantitation for the ability of the monoclonal antibody to block the binding of human MCAM to the α-4 chain of laminin was determined as follows. CHO cells expressing human MCAM were incubated with an anti-human MCAM antibody (at various concentrations) for 30 minutes at 4 degrees Celsius. […] Unbound laminin was then washed away, and the laminin bound to the surface of the cells was detected with fluorescently labeled anti-laminin antibodies. After washing, the amount of laminin bound to the surface was detected by flow cytometry, and IC50s were calculated based on the mean fluorescent intensity.
These six anti-MCAM monoclonal antibody clones are herein referred to as (i) the mouse anti-human MCAM monoclonal clones 1174.1.3, 1414.1.2, 1415.1.1, and 1749.1.3, and (ii) the rat anti-human MCAM monoclonal antibody clones 2120.4.19 and 2107.4.10. […] As such, each of these specific monoclonal antibodies was very capable of binding to human MCAM and inhibiting the interaction of cell-expressed human MCAM with its α-4 laminin binding ligand.

B1: mouse anti-human MCAM monoclonal antibody clone 1749.1.3 (antibody, V domains shown)
VH: DVKLVESGGDLVKPGGSLKLSCAASGFTFSSYIMSWVRQTPEKRLEWVATISSGGSSTYYPDSVKGRFTISRDNAKNTLYLQMSSLKSEDTAMYYCTRDDDYDVKVFAYWGQGTLVTVSA
VL: DIVMSQSPSSLAVSAGEKVTMNCKSSRSLLNSRIRKNYLAWYQQKPGQSPKLLIYWASTRESGVPDRFTGSGSGTDFTLTISSVQAEDLAVYYCKQSYNLLTFGAGTKLELK
notes: mouse hybridoma antibody; also called rodent 1749; murine 1749.1.3 anti-MCAM antibody
[1]
  binding result: no binding
[2]
  fold over rodent (blocking, laminin/FACS): 1 fold
[3]
  fold over rodent (Forte affinity): 1 fold
[4]
  IC50: 0.545 µg/mL
